One substance from patent US6034212 can be followed below.

The target in assay [1] is GST-… fusion protein (mouse). In words: Western ligand blot, reference GST-WBP-1 (1-74).
In assay [2] the target is GST-…. In words: blot of mutant ligand proteins probed with 32P-labelled GST-WW-YAP.

“GST-WW-YAP fusion protein (WW domain of human YAP in pGEX-2TK)” yielded a signal relative to the N-terminal construct in assay [1] of 80%. The substance further came in with a fold reduction of binding against wild-type PY in assay [2] of 2 fold.
